Where two headings read alike, the source gives them in different places.
How the values were obtained:
[1] = target: T1, recombinant human ROR1 protein (Fc-Tag, Acro Biosystems RO1-H5250) (human, UniProt Q01973 30-406); test: SPR; hROR1-Fc immobilized (Avidity)
T1 construct: Bought; also called hROR1; recombinant human ROR1 ECD; not shown: Fc tag

[2] = target: T2, recombinant human CD3 epsilon extra-cellular domain protein (His-Tag, SinoBiological) (human, UniProt P07766 23-126); test: SPR; hCD3ε immobilized, two-state fit
T2 construct: extracellular domain; Bought; also called hCD3ε; human CD3ε; not shown: His tag

[3] = target: T2, recombinant human CD3 epsilon …; test: SPR; hCD3ε immobilized, two-state fit (Ka1)
[4] = target: T2, recombinant human CD3 epsilon …; test: SPR; hCD3ε immobilized, two-state fit (kd1)
[5] = target: T3, human ROR1 (Peprotech 160-054) (human, UniProt Q01973 30-406); test: SPR; MATCH4 captured, hROR1 analyte (Affinity)
T3 construct: Bought, used as analyte; also called hROR1; recombinant human ROR1 protein

[6] = target: T1, recombinant human ROR1 protein (Fc-Tag, …); test: SPR; hROR1-Fc immobilized
[7] = target: T4, human ROR1 expressed on cells (human, UniProt Q01973 30-937); test: flow cytometry, MDA-MB-231 cells
T4 construct: whole, on cells; One molecule for cell-surface ROR1 on all cell lines; the cell line is named under assay; also called hROR1; plasma membrane human ROR1

[8] = target: T5, human serum albumin (Sigma-Aldrich A3782) (human, UniProt P02768 25-609); test: SPR; hSA immobilized, pH 5.5
T5 construct: also called hSA; HSA

[9] = target: T4, human ROR1 expressed on cells; test: cell-based or functional assay
[10] = target: T1, recombinant human ROR1 protein (Fc-Tag, …); test: SPR; hROR1-Fc immobilized; remark: listed apart in the source
[11] = target: T2, recombinant human CD3 epsilon …; test: SPR; hCD3ε immobilized, two-state fit; remark: listed apart in the source
[12] = target: T2, recombinant human CD3 epsilon …; test: SPR; hCD3ε immobilized, two-state fit (ka1)
[13] = target: T2, recombinant human CD3 epsilon …; test: SPR; hCD3ε immobilized, two-state fit (kd1); remark: listed apart in the source
[14] = target: T4, human ROR1 expressed on cells; test: flow cytometry, MDA-MB-231 cells, 1 mg/ml hSA

Kd [6]	koff [6]	kon [6]	EC50 [7]	Rel. maximum binding (MFIscFv/MFIPRO2213) [7]	Kd [10]	koff [10]	kon [10]	Kd [11]	ka2 [11]	kd2 [11]	kon [12]	koff [13]	Binder	other results
													PRO2669 (bispecific antibody, heterodimeric MATCH4, modified VH domains, variant of PRO2589; also called MATCH4 with 55-38-D07-sc02(RTQ) / 19-04-A10-sc02(RTQ) diS / 28-21-D09-sc04(RTQ) / 55-38-D07-sc02(RTQ)) chain 1: DVQMTQSPSSLSASVGDRVTITCRASENIYSGLAWYQQKPGKPPKLLIYRASTLASGVSSRFSGSGSGTDFTLTISSLQPEDFATYYCQGGYYSSSSTYIAFGTGTKVTVLGGGGGSGGGGSGGGGSGGGGSQSQVVESGGGRVQPGGSLRLSCAVSGFDLSSYAVSWVRQAPGKGLEWIGIIYPRANTYYASWAKGRFTISKDNSKNTVYLQMNSLRAEDTATYFCARDRYDSGAYLYTTYFNLWGQGTQVTVSSGGGGSGGGGSAFELTQSPSSLSASVGDRVTITCQASESINSRLAWYQQKPGQPPKLLIYDASDLTSGVPSRFSGSGSGTDFTLTISSLQPEDFATYYCQGYGGSSTTTFGCGTKLTVLGGGSGGSDIQMTQSPSSLSASVGDRVTITCQSSQSVFSNNYLAWFQQKPGQSPKRLIYSASTLASGVPSRFSGSGSGTDFTLTISSLQPEDFATYYCLGSYACSSADCYVFGTGTKVTVLG chain 2: DVQMTQSPSSLSASVGDRVTITCRASENIYSGLAWYQQKPGKPPKLLIYRASTLASGVSSRFSGSGSGTDFTLTISSLQPEDFATYYCQGGYYSSSSTYIAFGTGTKVTVLGGGGGSGGGGSGGGGSGGGGSQSQVVESGGGRVQPGGSLRLSCAVSGFDLSSYAVSWVRQAPGKGLEWIGIIYPRANTYYASWAKGRFTISKDNSKNTVYLQMNSLRAEDTATYFCARDRYDSGAYLYTTYFNLWGQGTQVTVSSGGGGSGGGGSEVQLVESGGGRVQPGGSLRLSCAASGFSLSSYDMSWVRQAPGKGLAWIGASYASGPTYYASWAKGRFTISRDNSKNTVYLQMNSLRAEDTATYFCARGGWTGTSHSNIWGQGTQVTVSSGGGSGGGSGGGSGEVQLVESGGGRVQPGGSLRLSCAASGFSLSSYAMNWVRQAPGKCLEWIGHINAGDIAYYATWAKGRFTISRDNSKNTVYLQMNSLRAEDTATYFCARGAGGFSTGPFKLWGQGTQVTVSS	Kd [1]: 0.026 nM; koff [1]: 2.6e-05 s⁻¹; kon [1]: 1e+06 M⁻¹ s⁻¹; Ka2 [2]: 0.0056 s⁻¹; Kd [2]: 2.7 nM; Kd2 [2]: 0.0047 s⁻¹; kon [3]: 810000 M⁻¹ s⁻¹; koff [4]: 0.0047 s⁻¹; Kd [5]: ≤ 0.177 nM; koff [5]: < 1e-05 s⁻¹; kon [5]: 56600 M⁻¹ s⁻¹
0.0906 nM	0.000616 s⁻¹	6.8e+06 M⁻¹ s⁻¹	0.27 nM	1.18									PRO2292 (scFv, V domains shown, scFv, PRO2062 with VL-VH interdomain disulfide (AHo 141VL-51VH); also called 55-39-G02-sc05) VH: QSQLVESGGGLVQPGGSLRLSCAVSGLSLSRNAMSWVRQAPGKCLEWIGIILTSGSTYYASWAKGRFTISKDNSKNTVYLQMNSLRAEDTAVYFCVRGIASSSLKSFWGQGTLVTVSS VL: AQQLTQSPSSLSASVGDRVTITCQASQNVWNNNYLSWFQQKPGKPPKLLIVTASTLASGVSSRFSGSGSGTDFTLTISSLQPEDFATYYCAGGFSGEIRAFGCGTKVTVLG	
													PRO2558 (bispecific antibody, Interdomain disulfide in the hSA domain (VH G51C / VL G141C, AHo numbering)., also called 19-04-A10-sc06 scDb-o/28-21-D09-sc04 scDb-i/56-22-A05-sc02 scFv; not shown: C-terminal 56-22-A05-sc02 scFv and the linker leading to it) AFELTQSPSSLSASVGDRVTITCQASESINSRLAWYQQKPGQPPKLLIYDASDLTSGVPSRFSGSGSGTDFTLTISSLQPEDFATYYCQGYGGSSTTTFGCGTKLTVLGGGGGSEVQLVESGGGLVQPGGSLRLSCAASGFSLSSYDMSWVRQAPGKGLAWIGASYASGPTYYASWAKGRFTISRDNSKNTVYLQMNSLRAEDTATYFCARGGWTGTSHSNIWGQGTLVTVSSGGGGSGGGGSGGGGSGGGGSDIQMTQSPSSLSASVGDRVTITCQSSQSVFSNNYLAWFQQKPGQSPKRLIYSASTLASGVPSRFSGSGSGTDFTLTISSLQPEDFATYYCLGSYACSSADCYVFGTGTKVTVLGGGGGSEVQLVESGGGLVQPGGSLRLSCAASGFSLSSYAMNWVRQAPGKCLEWIGHINAGDIAYYATWAKGRFTISRDNSKNTVYLQMNSLRAEDTAVYFCARGAGGFSTGPFKLWGQGTLVTVSS	Kd [8]: 4.4 nM; koff [8]: 0.002 s⁻¹; kon [8]: 460000 M⁻¹ s⁻¹
					≤ 0.13 nM	< 1e-05 s⁻¹	76000 M⁻¹ s⁻¹	8.5 nM	0.0068 s⁻¹	0.0074 s⁻¹	380000 M⁻¹ s⁻¹	0.0062 s⁻¹	PRO2508 (bispecific antibody, trispecific anti-ROR1 x hSA x CD3 scMATCH3, single chain; also called 19-04-A10-sc06 scDb-o/28-21-D09-sc04 scDb-i/55-38-D07-sc06-scFv) AFELTQSPSSLSASVGDRVTITCQASESINSRLAWYQQKPGQPPKLLIYDASDLTSGVPSRFSGSGSGTDFTLTISSLQPEDFATYYCQGYGGSSTTTFGCGTKLTVLGGGGGSEVQLVESGGGLVQPGGSLRLSCAASGFSLSSYDMSWVRQAPGKGLAWIGASYASGPTYYASWAKGRFTISRDNSKNTVYLQMNSLRAEDTATYFCARGGWTGTSHSNIWGQGTLVTVSSGGGGSGGGGSGGGGSGGGGSDIQMTQSPSSLSASVGDRVTITCQSSQSVFSNNYLAWFQQKPGQSPKRLIYSASTLASGVPSRFSGSGSGTDFTLTISSLQPEDFATYYCLGSYACSSADCYVFGTGTKVTVLGGGGGSEVQLVESGGGLVQPGGSLRLSCAASGFSLSSYAMNWVRQAPGKCLEWIGHINAGDIAYYATWAKGRFTISRDNSKNTVYLQMNSLRAEDTAVYFCARGAGGFSTGPFKLWGQGTLVTVSSGGGGSGGGGSDVQMTQSPSSLSASVGDRVTITCRASENIYSGLAWYQQKPGKPPKLLIYRASTLASGVSSRFSGSGSGTDFTLTISSLQPEDFATYYCQGGYYSSSSTYIAFGCGTKVTVLGGGGGSGGGGSGGGGSGGGGSQSQVVESGGGLVQPGGSLRLSCAVSGFDLSSYAVSWVRQAPGKCLEWIGIIYPRANTYYASWAKGRFTISKDNSKNTVYLQMNSLRAEDTAVYFCARDRYDSGAYLYTTYFNLWGQGTLVTVSS	EC50 (nM) Cytotoxicity (MDA-MB-231) [9]: 1.7 nM; EC50 [14]: 18.7 nM; Rel. maximum binding (MFIscMATCH3/MFIPRO2213) [14]: 3
					0.97 nM	9.2e-05 s⁻¹	95000 M⁻¹ s⁻¹	4.4 nM	0.0045 s⁻¹	0.0061 s⁻¹	540000 M⁻¹ s⁻¹	0.0041 s⁻¹	PRO2667 (bispecific antibody, trispecific anti-ROR1 x hSA x CD3 scMATCH3, single chain, modified VH domains; also called 19-04-A10-sc06(RTQ) scDb-o/28-21-D09-sc04 (RTQ) scDb-i/55-38-D07-sc02(RTQ)-scFv) AFELTQSPSSLSASVGDRVTITCQASESINSRLAWYQQKPGQPPKLLIYDASDLTSGVPSRFSGSGSGTDFTLTISSLQPEDFATYYCQGYGGSSTTTFGCGTKLTVLGGGGGSEVQLVESGGGRVQPGGSLRLSCAASGFSLSSYDMSWVRQAPGKGLAWIGASYASGPTYYASWAKGRFTISRDNSKNTVYLQMNSLRAEDTATYFCARGGWTGTSHSNIWGQGTQVTVSSGGGGSGGGGSGGGGSGGGGSDIQMTQSPSSLSASVGDRVTITCQSSQSVFSNNYLAWFQQKPGQSPKRLIYSASTLASGVPSRFSGSGSGTDFTLTISSLQPEDFATYYCLGSYACSSADCYVFGTGTKVTVLGGGGGSEVQLVESGGGRVQPGGSLRLSCAASGFSLSSYAMNWVRQAPGKCLEWIGHINAGDIAYYATWAKGRFTISRDNSKNTVYLQMNSLRAEDTATYFCARGAGGFSTGPFKLWGQGTQVTVSSGGGGSGGGGSDVQMTQSPSSLSASVGDRVTITCRASENIYSGLAWYQQKPGKPPKLLIYRASTLASGVSSRFSGSGSGTDFTLTISSLQPEDFATYYCQGGYYSSSSTYIAFGTGTKVTVLGGGGGSGGGGSGGGGSGGGGSQSQVVESGGGRVQPGGSLRLSCAVSGFDLSSYAVSWVRQAPGKGLEWIGIIYPRANTYYASWAKGRFTISKDNSKNTVYLQMNSLRAEDTATYFCARDRYDSGAYLYTTYFNLWGQGTQVTVSS	
1.12 nM	0.000302 s⁻¹	269000 M⁻¹ s⁻¹	2.74 nM	1.18									PRO2291 (scFv, V domains shown, scFv, PRO2060 with VL-VH interdomain disulfide (AHo 141VL-51VH); also called 55-38-D07-sc06) VH: QSQVVESGGGLVQPGGSLRLSCAVSGFDLSSYAVSWVRQAPGKCLEWIGIIYPRANTYYASWAKGRFTISKDNSKNTVYLQMNSLRAEDTAVYFCARDRYDSGAYLYTTYFNLWGQGTLVTVSS VL: DVQMTQSPSSLSASVGDRVTITCRASENIYSGLAWYQQKPGKPPKLLIYRASTLASGVSSRFSGSGSGTDFTLTISSLQPEDFATYYCQGGYYSSSSTYIAFGCGTKVTVLG	

— patent US20240392003A1 (NUMAB THERAPEUTICS, published 2024)
